From the supplement of paper PMC9112550, “Optimization of the antimicrobial peptide Bac7 by deep mutational scanning” (BMC Biology, 2022)

System: Escherichia coli TOP10
Assay: shrunken log2 fold change of peptide-encoding DNA abundance (4.5 h post-induction vs induction); higher = less antimicrobial activity (less host growth inhibition)
Settings: time post-induction: 4.5 h; library: site-saturation at positions 5, 18, 19, 20
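Note: peptides expressed intracellularly from a pBAD plasmid library in pooled LB shake-flask culture, induced with 0.3% L-arabinose, DNA abundance read by NGS, three biological replicates, DESeq2 with apeglm shrinkage.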

Sequence | shrunken log2 fold change
RRIRCRPPRLPRPRPRPMSEPRP | -0.0508
RRIRHRPPRLPRPRPRPHHVPRP | -0.35
RRIRNRPPRLPRPRPRPVMCPRP | -0.0207
RRIRYRPPRLPRPRPRPRIFPRP | -0.603
RRIRTRPPRLPRPRPRPTLNPRP | 0.569
RRIRHRPPRLPRPRPRPLAWPRP | 0.198
RRIRRRPPRLPRPRPRPTFNPRP | 0.077
RRIRHRPPRLPRPRPRPAECPRP | -0.696
RRIRRRPPRLPRPRPRPCWTPRP | -0.13
RRIRERPPRLPRPRPRPSGTPRP | -0.117
RRIRYRPPRLPRPRPRPAYEPRP | -0.184
RRIRERPPRLPRPRPRPYQMPRP | -0.448
RRIRNRPPRLPRPRPRPSTNPRP | -0.337
RRIRPRPPRLPRPRPRPNKRPRP | -0.101
RRIRARPPRLPRPRPRPDCPPRP | 0.337
RRIRYRPPRLPRPRPRPVSSPRP | -0.272
RRIRVRPPRLPRPRPRPSRSPRP | 0.0405
RRIRIRPPRLPRPRPRPCFGPRP | -0.415
RRIRYRPPRLPRPRPRPKIPPRP | -0.21
RRIRYRPPRLPRPRPRPWLCPRP | -0.0909
RRIRFRPPRLPRPRPRPKIFPRP | -0.197
RRIRRRPPRLPRPRPRPCNEPRP | -0.0323
RRIRHRPPRLPRPRPRPMTPPRP | 0.0337
RRIRKRPPRLPRPRPRPPNEPRP | 1.68
RRIRYRPPRLPRPRPRPPDFPRP | -0.136

Sequence | shrunken log2 fold change
RRIRWRPPRLPRPRPRPILAPRP | 0.364
RRIRPRPPRLPRPRPRPCAPPRP | 0.159
RRIRMRPPRLPRPRPRPQGEPRP | -0.0117
RRIRARPPRLPRPRPRPNFAPRP | 0.467
RRIRRRPPRLPRPRPRPPNYPRP | 0.0616
RRIRKRPPRLPRPRPRPKKVPRP | -0.0126
RRIRNRPPRLPRPRPRPTYAPRP | 0.027
RRIRKRPPRLPRPRPRPQLGPRP | 0.378
RRIRQRPPRLPRPRPRPQEHPRP | -0.942
RRIRRRPPRLPRPRPRPVANPRP | 0.207
RRIRKRPPRLPRPRPRPDPVPRP | -0.146
RRIRRRPPRLPRPRPRPYGGPRP | -0.326
RRIRKRPPRLPRPRPRPTQAPRP | -0.00908
RRIRWRPPRLPRPRPRPMRHPRP | 0.228
RRIRWRPPRLPRPRPRPVYGPRP | -0.083
RRIRKRPPRLPRPRPRPFHHPRP | -0.131
RRIRVRPPRLPRPRPRPILSPRP | -0.134
RRIRIRPPRLPRPRPRPADHPRP | -0.0431
RRIRGRPPRLPRPRPRPHGFPRP | 0.422
RRIRDRPPRLPRPRPRPFYAPRP | -0.439
RRIRGRPPRLPRPRPRPEYYPRP | 0.166
RRIRTRPPRLPRPRPRPLILPRP | -0.839
RRIRQRPPRLPRPRPRPAHLPRP | 0.362
RRIRSRPPRLPRPRPRPWDNPRP | 0.0157
RRIRLRPPRLPRPRPRPMCGPRP | 0.0137

Sequence | shrunken log2 fold change
RRIRKRPPRLPRPRPRPWCEPRP | 0.157
RRIRFRPPRLPRPRPRPWFQPRP | -0.285
RRIRTRPPRLPRPRPRPLVVPRP | 0.193
RRIRHRPPRLPRPRPRPNLVPRP | -0.00912
RRIRHRPPRLPRPRPRPVSVPRP | -0.225
RRIRGRPPRLPRPRPRPPFHPRP | 0.24
RRIRKRPPRLPRPRPRPAKRPRP | 2.15
RRIRVRPPRLPRPRPRPYCDPRP | -0.348
RRIRCRPPRLPRPRPRPMTIPRP | -0.128
RRIRDRPPRLPRPRPRPYATPRP | 0.0348
RRIRWRPPRLPRPRPRPVGDPRP | 0.33
RRIRHRPPRLPRPRPRPDSWPRP | -0.0468
RRIRTRPPRLPRPRPRPNWTPRP | 0.00155
RRIRRRPPRLPRPRPRPLWTPRP | 0.129
RRIRKRPPRLPRPRPRPWVWPRP | 0.445
RRIRYRPPRLPRPRPRPSMMPRP | -1.21
RRIRFRPPRLPRPRPRPLYSPRP | -0.211
RRIRWRPPRLPRPRPRPLHPPRP | 0.597
RRIRHRPPRLPRPRPRPDKKPRP | -0.0244
RRIRKRPPRLPRPRPRPHLIPRP | 0.108
RRIRKRPPRLPRPRPRPLLFPRP | 0.176
RRIRFRPPRLPRPRPRPSSDPRP | -0.286
RRIRARPPRLPRPRPRPCLTPRP | 0.158
RRIRARPPRLPRPRPRPYTSPRP | 0.0229
RRIRCRPPRLPRPRPRPFEFPRP | 0.0705

Sequence | shrunken log2 fold change
RRIRRRPPRLPRPRPRPCFIPRP | -0.127
RRIRFRPPRLPRPRPRPPVFPRP | 0.138
RRIRCRPPRLPRPRPRPECDPRP | 0.346
RRIRGRPPRLPRPRPRPSYYPRP | 0.118
RRIRIRPPRLPRPRPRPGAMPRP | 0.046
RRIRERPPRLPRPRPRPHGMPRP | 0.0601
RRIRIRPPRLPRPRPRPWANPRP | -0.0688
RRIRRRPPRLPRPRPRPHWIPRP | 0.0716
RRIRLRPPRLPRPRPRPDHRPRP | -0.041
RRIRMRPPRLPRPRPRPYVCPRP | -0.00867
RRIRGRPPRLPRPRPRPFDQPRP | 0.2
RRIRWRPPRLPRPRPRPNKDPRP | -0.393
RRIRHRPPRLPRPRPRPHNLPRP | 0.0201
RRIRCRPPRLPRPRPRPLYDPRP | -0.312
RRIRHRPPRLPRPRPRPLWDPRP | -0.15
RRIRPRPPRLPRPRPRPMLPPRP | 0.0406
RRIRFRPPRLPRPRPRPQVSPRP | -0.298
RRIRHRPPRLPRPRPRPMHYPRP | -0.289
RRIRARPPRLPRPRPRPMGYPRP | 0.0315
RRIRGRPPRLPRPRPRPTCFPRP | 1.14
RRIRCRPPRLPRPRPRPVDDPRP | 0.157
RRIRSRPPRLPRPRPRPWYAPRP | -0.253
RRIRTRPPRLPRPRPRPHSYPRP | -1.23
RRIRFRPPRLPRPRPRPWQGPRP | 0.00425
RRIRKRPPRLPRPRPRPQQHPRP | 0.138

Sequence | shrunken log2 fold change
RRIRRRPPRLPRPRPRPFECPRP | 0.036
RRIRLRPPRLPRPRPRPPPSPRP | 1.28
RRIRGRPPRLPRPRPRPNTQPRP | 0.224
RRIRTRPPRLPRPRPRPEADPRP | 0.0868
RRIRGRPPRLPRPRPRPHMHPRP | 0.448
RRIRWRPPRLPRPRPRPLLGPRP | 0.875
RRIRSRPPRLPRPRPRPIHDPRP | -0.128
RRIRIRPPRLPRPRPRPRPAPRP | 0.286
RRIRGRPPRLPRPRPRPAKSPRP | 0.492
RRIRMRPPRLPRPRPRPIPWPRP | -0.033
RRIRCRPPRLPRPRPRPRSDPRP | -0.101
RRIRDRPPRLPRPRPRPCKDPRP | -0.144
RRIRWRPPRLPRPRPRPNPCPRP | -0.0647
RRIRIRPPRLPRPRPRPTKYPRP | -0.681
RRIRERPPRLPRPRPRPPQHPRP | 0.128
RRIRFRPPRLPRPRPRPDETPRP | 0.145
RRIRTRPPRLPRPRPRPQMFPRP | 0.0287
RRIRQRPPRLPRPRPRPQRYPRP | -0.0112
RRIRQRPPRLPRPRPRPWCSPRP | -0.0146
RRIRNRPPRLPRPRPRPKWTPRP | -0.0342
RRIRFRPPRLPRPRPRPPPEPRP | 1.28
RRIRDRPPRLPRPRPRPFNLPRP | -0.176
RRIRHRPPRLPRPRPRPVPLPRP | -0.396
RRIRRRPPRLPRPRPRPFWIPRP | 0.0724
RRIRHRPPRLPRPRPRPDSCPRP | -0.164
